Results from the supplement of paper PMC10065799, “High-throughput profiling of sequence recognition by tyrosine kinases and SH2 domains using bacterial peptide display” (eLife, 2023).

What was measured:
SHP2-C SH2 = assay: SH2 binding enrichment of the phosphorylated peptide, bacterial display (enrichment ratio); higher = better substrate or ligand; peptides without Tyr show the background
c-Src SH2 = assay: as above
Grb2 SH2 = Grb2 SH2 (UniProt P62993); assay: as above
FGFR1 = FGFR1 (UniProt P11362); assay: phosphorylation enrichment, bacterial display (enrichment ratio); higher = better substrate or ligand; peptides without Tyr show the background
Fyn = Fyn (UniProt P06241); assay: as above
c-Abl (mouse) = assay: as above
MERTK = MERTK (UniProt Q12866); assay: as above
Jak2 = Jak2 (UniProt O60674); assay: as above
Fes = Fes (UniProt P07332); assay: as above
EPHB2 = EPHB2 (UniProt P29323); assay: as above
Fer (mouse) = assay: as above
AncSZ = assay: as above
EPHB1 = EPHB1 (UniProt P54762); assay: as above
c-Src = assay: as above
FGFR3 = FGFR3 (UniProt P22607); assay: as above
Hck = Hck (UniProt P08631); assay: as above
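Throughout, for SH2 binding enrichment of the phosphorylated peptide, bacterial display: peptide library displayed on the E. coli surface as eCPX fusions, selected cells deep-sequenced, score is each peptide's frequency after selection divided by its frequency in the input.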
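Throughout, for phosphorylation enrichment, bacterial display: 11-residue human phosphosite peptides and single-mutation variants displayed on the E. coli surface, counted by deep sequencing, each peptide's frequency after selection divided by its frequency in the unselected input library; frequency after pTyr selection over input frequency; kinase dosed for 20-30% of maximal phosphorylation in three min.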

Chain of Fyn (P06241 whole entry, looked up): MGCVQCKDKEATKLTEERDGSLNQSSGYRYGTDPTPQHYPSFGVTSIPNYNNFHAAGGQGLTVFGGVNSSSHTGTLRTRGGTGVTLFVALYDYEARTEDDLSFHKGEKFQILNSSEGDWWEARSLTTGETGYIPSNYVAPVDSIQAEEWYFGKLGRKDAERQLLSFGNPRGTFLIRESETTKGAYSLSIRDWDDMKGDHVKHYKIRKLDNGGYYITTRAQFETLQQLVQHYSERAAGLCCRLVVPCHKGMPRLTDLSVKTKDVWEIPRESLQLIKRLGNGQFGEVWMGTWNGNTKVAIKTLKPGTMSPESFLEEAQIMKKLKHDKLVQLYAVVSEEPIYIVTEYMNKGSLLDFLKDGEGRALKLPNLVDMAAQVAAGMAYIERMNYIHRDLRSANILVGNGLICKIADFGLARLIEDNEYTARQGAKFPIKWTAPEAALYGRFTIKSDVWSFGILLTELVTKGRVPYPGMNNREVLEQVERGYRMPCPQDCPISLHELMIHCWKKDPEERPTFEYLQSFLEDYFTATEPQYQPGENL
Chain of Fes (P07332 whole entry, looked up): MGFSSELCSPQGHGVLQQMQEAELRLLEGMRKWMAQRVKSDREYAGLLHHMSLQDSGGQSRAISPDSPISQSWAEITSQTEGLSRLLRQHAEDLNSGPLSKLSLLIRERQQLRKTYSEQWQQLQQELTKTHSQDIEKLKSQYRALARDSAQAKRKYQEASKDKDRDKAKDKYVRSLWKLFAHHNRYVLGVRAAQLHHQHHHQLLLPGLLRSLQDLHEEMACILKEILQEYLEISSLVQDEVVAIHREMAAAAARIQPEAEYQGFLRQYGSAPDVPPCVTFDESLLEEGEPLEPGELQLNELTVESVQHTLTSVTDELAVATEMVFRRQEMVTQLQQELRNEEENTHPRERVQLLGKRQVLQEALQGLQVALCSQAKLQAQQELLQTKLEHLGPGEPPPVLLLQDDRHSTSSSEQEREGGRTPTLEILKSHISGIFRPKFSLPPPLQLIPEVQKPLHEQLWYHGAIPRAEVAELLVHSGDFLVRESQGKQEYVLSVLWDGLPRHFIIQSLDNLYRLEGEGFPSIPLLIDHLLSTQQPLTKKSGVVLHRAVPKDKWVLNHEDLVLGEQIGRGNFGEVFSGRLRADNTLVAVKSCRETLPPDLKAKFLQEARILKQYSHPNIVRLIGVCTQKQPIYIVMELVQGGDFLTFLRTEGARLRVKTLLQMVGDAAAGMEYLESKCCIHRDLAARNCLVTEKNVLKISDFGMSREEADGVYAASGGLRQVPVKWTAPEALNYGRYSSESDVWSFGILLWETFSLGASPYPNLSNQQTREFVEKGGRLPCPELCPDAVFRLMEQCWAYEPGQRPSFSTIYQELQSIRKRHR
Chain of Jak2 (O60674 whole entry, looked up): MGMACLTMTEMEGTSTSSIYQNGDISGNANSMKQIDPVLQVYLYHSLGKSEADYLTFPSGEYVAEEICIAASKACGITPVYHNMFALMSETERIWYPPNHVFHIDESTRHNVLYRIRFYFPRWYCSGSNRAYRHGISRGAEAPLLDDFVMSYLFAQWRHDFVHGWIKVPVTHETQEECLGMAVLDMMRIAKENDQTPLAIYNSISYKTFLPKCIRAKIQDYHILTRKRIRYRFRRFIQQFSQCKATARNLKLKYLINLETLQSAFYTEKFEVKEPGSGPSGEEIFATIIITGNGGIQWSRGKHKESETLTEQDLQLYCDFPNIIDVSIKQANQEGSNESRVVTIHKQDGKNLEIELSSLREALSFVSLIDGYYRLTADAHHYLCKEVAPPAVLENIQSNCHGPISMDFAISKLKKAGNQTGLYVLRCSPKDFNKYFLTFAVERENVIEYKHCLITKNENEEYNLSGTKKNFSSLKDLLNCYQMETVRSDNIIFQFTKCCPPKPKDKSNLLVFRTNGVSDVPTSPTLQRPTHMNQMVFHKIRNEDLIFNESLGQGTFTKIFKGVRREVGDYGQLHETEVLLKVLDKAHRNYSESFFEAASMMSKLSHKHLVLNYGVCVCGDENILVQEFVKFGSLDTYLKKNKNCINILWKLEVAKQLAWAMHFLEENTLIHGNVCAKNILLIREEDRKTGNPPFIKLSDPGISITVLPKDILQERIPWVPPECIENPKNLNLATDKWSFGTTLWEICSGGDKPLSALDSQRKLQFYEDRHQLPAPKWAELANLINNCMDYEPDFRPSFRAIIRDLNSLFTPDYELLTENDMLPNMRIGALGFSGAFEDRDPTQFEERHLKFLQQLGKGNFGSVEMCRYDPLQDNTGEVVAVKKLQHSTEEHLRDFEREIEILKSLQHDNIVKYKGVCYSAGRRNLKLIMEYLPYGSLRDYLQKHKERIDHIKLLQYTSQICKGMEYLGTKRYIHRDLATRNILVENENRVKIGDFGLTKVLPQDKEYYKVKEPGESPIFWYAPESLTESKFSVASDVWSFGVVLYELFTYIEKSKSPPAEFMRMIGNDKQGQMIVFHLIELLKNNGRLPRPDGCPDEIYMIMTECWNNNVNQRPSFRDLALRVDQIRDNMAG
Chain of Grb2 SH2 (P62993 whole entry, looked up): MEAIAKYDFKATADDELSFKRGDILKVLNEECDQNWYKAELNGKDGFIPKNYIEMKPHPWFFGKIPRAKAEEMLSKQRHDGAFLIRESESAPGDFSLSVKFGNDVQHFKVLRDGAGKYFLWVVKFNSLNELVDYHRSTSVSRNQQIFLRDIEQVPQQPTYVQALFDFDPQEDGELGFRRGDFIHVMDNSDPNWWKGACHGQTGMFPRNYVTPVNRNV
Chain of FGFR3 (P22607 whole entry, looked up): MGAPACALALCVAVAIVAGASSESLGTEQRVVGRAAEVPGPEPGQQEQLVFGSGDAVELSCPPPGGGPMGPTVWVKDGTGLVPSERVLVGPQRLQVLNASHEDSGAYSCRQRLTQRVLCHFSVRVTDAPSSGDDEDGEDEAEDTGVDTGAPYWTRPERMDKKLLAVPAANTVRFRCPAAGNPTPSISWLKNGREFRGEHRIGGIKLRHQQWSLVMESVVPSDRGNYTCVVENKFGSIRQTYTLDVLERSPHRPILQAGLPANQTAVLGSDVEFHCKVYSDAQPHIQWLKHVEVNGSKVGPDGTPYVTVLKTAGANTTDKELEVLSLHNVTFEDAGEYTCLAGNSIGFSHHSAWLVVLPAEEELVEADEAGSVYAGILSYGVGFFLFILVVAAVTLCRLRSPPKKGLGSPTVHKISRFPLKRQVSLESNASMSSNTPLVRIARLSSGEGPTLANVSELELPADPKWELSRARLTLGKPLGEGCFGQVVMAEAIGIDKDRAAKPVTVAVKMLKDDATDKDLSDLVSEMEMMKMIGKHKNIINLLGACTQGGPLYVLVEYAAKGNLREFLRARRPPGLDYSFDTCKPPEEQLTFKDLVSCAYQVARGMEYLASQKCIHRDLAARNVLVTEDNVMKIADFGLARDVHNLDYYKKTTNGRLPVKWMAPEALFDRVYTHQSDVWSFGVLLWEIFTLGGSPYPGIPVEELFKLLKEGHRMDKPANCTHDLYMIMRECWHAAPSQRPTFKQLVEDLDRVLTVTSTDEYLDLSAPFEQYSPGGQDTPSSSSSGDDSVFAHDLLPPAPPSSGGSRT
Chain of FGFR1 (P11362 whole entry, looked up): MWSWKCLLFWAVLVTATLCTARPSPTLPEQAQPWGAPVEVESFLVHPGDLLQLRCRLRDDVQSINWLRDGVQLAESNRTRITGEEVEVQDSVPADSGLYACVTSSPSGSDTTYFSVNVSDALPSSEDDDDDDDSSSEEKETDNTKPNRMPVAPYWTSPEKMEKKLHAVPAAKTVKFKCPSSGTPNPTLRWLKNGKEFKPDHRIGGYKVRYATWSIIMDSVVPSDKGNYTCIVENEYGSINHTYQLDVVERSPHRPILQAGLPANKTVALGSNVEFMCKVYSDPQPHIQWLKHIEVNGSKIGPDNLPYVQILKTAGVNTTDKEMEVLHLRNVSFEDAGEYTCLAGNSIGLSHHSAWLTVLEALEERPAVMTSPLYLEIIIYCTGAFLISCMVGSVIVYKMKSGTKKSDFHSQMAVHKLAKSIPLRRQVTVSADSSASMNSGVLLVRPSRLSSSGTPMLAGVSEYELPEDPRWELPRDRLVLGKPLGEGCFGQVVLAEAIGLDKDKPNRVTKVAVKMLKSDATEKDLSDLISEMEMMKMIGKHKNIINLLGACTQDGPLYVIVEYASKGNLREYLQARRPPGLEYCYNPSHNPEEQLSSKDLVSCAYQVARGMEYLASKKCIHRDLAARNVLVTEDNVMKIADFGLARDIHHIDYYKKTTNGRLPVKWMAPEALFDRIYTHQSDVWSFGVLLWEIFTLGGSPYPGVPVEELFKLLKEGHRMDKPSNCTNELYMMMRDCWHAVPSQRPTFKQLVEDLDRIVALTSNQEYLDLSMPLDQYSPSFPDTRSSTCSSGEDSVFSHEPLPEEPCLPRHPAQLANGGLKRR
Chain of Hck (P08631 whole entry, looked up, the tested form may be a part): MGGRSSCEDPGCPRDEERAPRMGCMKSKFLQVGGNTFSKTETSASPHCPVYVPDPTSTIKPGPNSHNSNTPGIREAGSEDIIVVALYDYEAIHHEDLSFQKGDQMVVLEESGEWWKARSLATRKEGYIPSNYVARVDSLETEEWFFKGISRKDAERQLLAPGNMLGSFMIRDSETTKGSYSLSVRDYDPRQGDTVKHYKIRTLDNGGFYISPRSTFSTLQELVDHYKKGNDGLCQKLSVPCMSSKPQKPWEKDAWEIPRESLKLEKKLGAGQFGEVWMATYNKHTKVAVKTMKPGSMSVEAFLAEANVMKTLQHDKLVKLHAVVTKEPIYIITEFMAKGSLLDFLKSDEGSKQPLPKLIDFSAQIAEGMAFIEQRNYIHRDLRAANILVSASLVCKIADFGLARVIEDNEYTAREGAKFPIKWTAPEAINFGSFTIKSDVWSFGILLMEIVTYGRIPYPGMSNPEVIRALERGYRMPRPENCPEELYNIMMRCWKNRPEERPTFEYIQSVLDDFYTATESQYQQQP

Sequence	SH2 binding enrichment (SHP2-C SH2)	SH2 binding enrichment (c-Src SH2)	SH2 binding enrichment (Grb2 SH2)	phosphorylation enrichment (FGFR1)	phosphorylation enrichment (Fyn)	phosphorylation enrichment (c-Abl (mouse))	phosphorylation enrichment (MERTK)	phosphorylation enrichment (Jak2)	phosphorylation enrichment (Fes)	phosphorylation enrichment (EPHB2)	phosphorylation enrichment (Fer (mouse))	phosphorylation enrichment (AncSZ)	phosphorylation enrichment (EPHB1)	phosphorylation enrichment (c-Src)	phosphorylation enrichment (FGFR3)	phosphorylation enrichment (Hck)
YNDSTYNQQLI [ZPLD1_Y198]	0.371	0.568	0.784	0.495	0.479	0.533	0.435	0.612	0.738	0.465	0.491	0.801	0.521	0.51	0.471	0.506
WNGDKYAATTT [TRIM39_Y439]	0.61	0.481	0.994	0.654	0.48	0.513	0.381	0.729	0.731	0.592	0.446	0.717	0.462	0.421	0.679	0.52
GTTIHYNYMCN [TP53_Y234_C229G]	0.73	1.56	0.716	0.619	0.614	0.814	0.585	1.22	1.37	0.704	0.656	1.12	0.834	0.529	0.973	0.673
DLVRPYVHKIL [SF3B1_Y570]	1.16	0.679	0.849	0.466	0.703	0.539	0.504	0.55	0.743	0.586	0.534	0.636	0.519	0.43	0.566	0.449
PSPTRYSLSPS [RANBP2_Y785]	0.454	0.438	0.759	0.525	0.537	1.5	0.56	0.439	0.886	0.856	0.436	0.976	0.536	0.597	0.577	0.515
WNEVGYDDIGG [VCP_Y203_L198W]	0.566	9.33	0.973	0.557	0.422	0.737	0.406	1.14	1.27	0.515	0.53	1.07	0.608	0.502	0.724	0.538
MSFDRYMAVCH [OR2A5_Y123_I126V_YF]	0.684	0.845	0.789	0.532	0.585	0.931	0.567	0.927	1.1	0.838	0.558	1.09	0.858	0.473	0.738	0.638
YRKNIYNVKST [SYNE2_Y575]	0.581	0.422	0.753	0.384	0.458	0.405	0.354	0.37	0.47	0.423	0.425	0.488	0.337	0.474	0.48	0.324
KFVKMCDNHQL [MYO9A_Y203_Y203C_YF]	0.795	0.587	0.8	0.429	0.419	0.519	0.378	0.513	0.603	0.384	0.358	0.483	0.425	0.441	0.45	0.42
YDKEYYSVHNK [MET_Y1235]	0.399	0.478	0.759	4.29	0.455	0.684	0.441	1.01	0.754	0.428	0.425	1.36	0.542	0.881	2.95	0.922
THPFLYLTLEI [MLH1_Y293_S295T]	0.688	0.623	0.873	0.652	0.473	1.22	0.524	1.97	2	0.889	0.778	1.71	0.889	0.548	1.23	0.556
SPPILYSFYLN [FCRL6_Y239_D244N]	1.69	0.824	1.63	0.807	2.18	1.5	9.41	1.22	1.12	4.36	3.7	1.21	3.78	2.87	0.882	2.06
SVETPYGSVTF [NDRG2_Y47]	0.527	0.427	0.809	0.397	5.93	0.635	0.52	0.606	0.928	0.438	5.24	0.82	0.501	4.56	0.53	2.16
YSNVLYRPRGA [TMIGD2_Y197]	0.683	1.05	0.907	0.784	0.615	0.692	2.23	0.596	0.753	0.6	4.97	0.923	1.34	0.558	0.614	0.651
TRGLEYIVPLM [CLCN4_Y548_G544R]	0.707	0.825	0.835	1.41	0.456	0.89	0.457	2.02	0.78	0.721	0.409	1.18	0.804	0.541	1.04	0.493
THPFPYLSLEI [MLH1_Y293_L292P]	0.752	2.05	1.04	0.657	0.295	0.715	0.414	1.09	0.978	0.474	0.39	0.909	0.502	0.554	0.677	0.475
DLVSEYQQYQD [TUBB3_Y422]	0.642	0.597	0.989	0.523	0.706	1.04	0.488	1.42	1.37	0.704	0.709	1.57	0.721	0.677	0.858	0.656

Sequence	SH2 binding enrichment (SHP2-C SH2)	SH2 binding enrichment (c-Src SH2)	SH2 binding enrichment (Grb2 SH2)	phosphorylation enrichment (FGFR1)	phosphorylation enrichment (Fyn)	phosphorylation enrichment (c-Abl (mouse))	phosphorylation enrichment (MERTK)	phosphorylation enrichment (Jak2)	phosphorylation enrichment (Fes)	phosphorylation enrichment (EPHB2)	phosphorylation enrichment (Fer (mouse))	phosphorylation enrichment (AncSZ)	phosphorylation enrichment (EPHB1)	phosphorylation enrichment (c-Src)	phosphorylation enrichment (FGFR3)	phosphorylation enrichment (Hck)
KSDVVYTDWKK [ORM1_Y175]	0.885	0.505	0.757	0.558	1.55	1.4	0.559	0.648	1.02	0.513	0.592	0.856	0.44	1.65	0.609	4.84
RKIMGYSIRTI [IDS_Y490_I485R]	0.718	0.654	0.944	0.664	0.591	0.759	0.535	0.62	0.796	0.556	0.619	0.699	0.676	0.666	0.524	0.624
APTSGYQEFVH [IL4R_Y575]	0.668	2.99	0.826	0.539	0.545	0.524	0.426	0.611	0.764	0.535	0.401	0.741	0.36	0.419	0.51	0.503
SNNFIYKTLGV [FAM83B_Y639_YF]	0.45	0.405	0.785	0.484	0.506	0.631	0.394	0.639	0.734	0.485	0.421	0.637	0.45	0.478	0.555	0.572
PTTKSYFPHFD [HBA1_Y43_T42S]	0.812	0.593	1.08	1.38	0.431	0.501	0.664	0.558	1.42	0.442	0.497	1.13	0.746	0.498	0.77	0.752
DISEPYEVYRI [IRF8_Y107_K108E]	0.401	0.638	0.76	0.736	1.55	0.862	0.522	0.912	1.05	0.634	9.63	2.01	0.425	3.97	0.624	1.28
KSRQIYDAYIM [GRK3_Y109_R104K]	0.834	0.683	0.955	0.505	11.1	5.89	6.9	0.581	0.735	7	12.4	0.797	2.98	8.25	0.546	8.38
PLGVLYKVKVF [PTS_Y128_V124L_YF]	0.896	0.494	0.88	0.562	0.801	0.973	0.446	1.23	1.64	0.824	0.692	1.54	0.922	0.311	0.862	0.553
MARDIYRASYY [ALK_Y1278]	0.708	0.839	0.877	0.624	0.688	1.77	0.673	0.702	0.683	0.439	0.408	0.685	0.466	1.58	0.63	1.01
VPLATYMQIFK [RPL21_Y30_R32Q_YF]	0.682	0.866	0.859	0.471	0.887	0.361	0.613	0.836	0.654	0.648	0.308	0.745	1.83	1.54	0.54	1.8
SGPRRYTVAAL [TTR_Y125_I127V]	0.516	0.618	0.794	0.401	0.457	0.635	0.395	0.729	0.496	0.42	0.393	0.51	0.409	0.415	0.423	0.429
EITSHYRHLLR [ZBTB46_Y14]	0.661	0.491	0.77	0.444	0.319	0.733	0.392	0.601	0.819	0.443	0.571	0.733	0.417	0.475	0.517	0.389
GILDVYIFLGP [GAA_Y340]	0.79	0.44	0.768	0.864	0.505	0.866	0.701	1.21	1.44	0.792	0.381	1.27	0.787	0.7	1.02	0.676
FHKALYTVRTY [PDE6C_Y266_S270T]	0.725	0.481	0.768	0.655	0.599	0.964	0.519	1.16	1.26	0.645	0.542	0.964	0.774	0.596	0.774	0.725
RENGPYYASYP [GDAP2_Y487_T489A]	1.13	0.705	0.822	2.29	8.25	1.94	7.74	0.661	0.869	5.74	0.691	1.04	1.58	7.26	1.92	5.46
HFPDVYAWEQL [ALX3_Y181_R183W_YF]	0.662	0.809	1.23	0.616	7.03	0.632	2.25	0.893	1.46	0.935	11.3	1.2	0.922	5.25	0.674	3.06
